Assay [1] has as its target T1, FNR648-labeled human serum albumin (human, UniProt P02768 25-609, FNR648 fluorescence dye conjugated (site not stated)).
T1 construct: human serum albumin (HSA), human; The pre-clearing step of the IP names plain 'HSA'; the detected species is FNR648-HSA; also called FNR648-HSA; HSA
Nature of the assay: co-IP; SPARC and FNR648-HSA incubated 2 h at 4 °C after pre-clearing (normal rabbit serum, protein A/G PLUS-Agarose); precipitated with rabbit anti-SPARC antibody and protein A/G PLUS-Agarose; 8% SDS-PAGE, FNR648 fluorescence in the gel read by IVIS. The settings on record: both partners purified.

The target of assay [2] is T1, FNR648-labeled human serum albumin. In words: FRET or BRET; Cy3-SPARC (donor) and FNR648-HSA (acceptor) added to U87MG cells; confocal imaging, excitation 514 nm, emission 540-600 nm (Cy3-SPARC) and 640-750 nm (FNR648-HSA); line ROI analysis. As to conditions: both partners purified. (In BRET a luciferase serves as donor, and the signal depends on an acceptor being close.)

T1 sequence (P02768 25-609): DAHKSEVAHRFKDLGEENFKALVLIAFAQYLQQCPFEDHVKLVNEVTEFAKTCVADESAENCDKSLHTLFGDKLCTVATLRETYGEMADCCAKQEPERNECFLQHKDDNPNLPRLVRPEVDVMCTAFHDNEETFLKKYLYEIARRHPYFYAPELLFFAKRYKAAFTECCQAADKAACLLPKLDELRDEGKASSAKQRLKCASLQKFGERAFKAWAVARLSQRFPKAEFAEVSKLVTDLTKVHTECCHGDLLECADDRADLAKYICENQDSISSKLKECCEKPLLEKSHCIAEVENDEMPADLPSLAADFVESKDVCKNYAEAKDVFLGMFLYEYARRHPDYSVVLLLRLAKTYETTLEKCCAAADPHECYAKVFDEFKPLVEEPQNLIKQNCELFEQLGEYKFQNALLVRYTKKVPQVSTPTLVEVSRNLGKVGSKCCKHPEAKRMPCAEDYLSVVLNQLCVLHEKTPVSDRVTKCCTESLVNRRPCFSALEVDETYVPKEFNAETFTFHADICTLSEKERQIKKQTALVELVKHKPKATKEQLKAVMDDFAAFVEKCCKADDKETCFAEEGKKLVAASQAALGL

B1: recombinant human SPARC (secreted protein acidic and rich in cysteine) (natural protein, UniProt P09486 18-303, looked up)
chain: APQQEALPDETEVVEETVAEVTEVSVGANPVQVEVGEFDDGAEETEEEVVAENPCQNHHCKHGKVCELDENNTPMCVCQDPTSCPAPIGEFEKVCSNDNKTFDSSCHFFATKCTLEGTKKGHKLHLDYIGPCKYIPPCLDSELTEFPLRMRDWLKNVLVTLYERDEDNNLLTEKQKLRVKKIHENEKRLEAGDHPVELLARDFEKNYNMYIFPVHWQFGQLDQHPIDGYLSHTELAPLRAPLIPMEHCTTRFFETCDLDNDKYIALDEWAGCFGIKQKDIDKDLVI
notes: secreted protein acidic and rich in cysteine (SPARC), human, recombinant, cell-derived; also called exogenous SPARC; source: bought: R&D system (cell-derived, 941-SP)
As to B1, in assay [1], the binding result was “binds”.

B2: Cy3-labeled recombinant human SPARC (natural protein, UniProt P09486 18-303, looked up)
chain: B1 chain
modifications: ADIBO-NHS conjugated, then Cy3-azide by click reaction (sites not given)
notes: secreted protein acidic and rich in cysteine (SPARC), human, recombinant, cell-derived; Same bought protein as m2, with the Cy3 label; also called Cy3-SPARC; fluorescence-labeled SPARC; source: bought: R&D system (cell-derived, 941-SP), then labelled via ADIBO-NHS and Cy3-azide click reaction
Turning to B2, the binding result in assay [2] was “binds”.
